The text below walks through data of article PMC10164574, “Fission yeast Swi2 designates cell-type specific donor and stimulates Rad51-driven strand exchange for mating-type switching”.

The target in the data set is T1, Swi2N (Schizosaccharomyces pombe, UniProt Q10668 1-391).
T1 sequence: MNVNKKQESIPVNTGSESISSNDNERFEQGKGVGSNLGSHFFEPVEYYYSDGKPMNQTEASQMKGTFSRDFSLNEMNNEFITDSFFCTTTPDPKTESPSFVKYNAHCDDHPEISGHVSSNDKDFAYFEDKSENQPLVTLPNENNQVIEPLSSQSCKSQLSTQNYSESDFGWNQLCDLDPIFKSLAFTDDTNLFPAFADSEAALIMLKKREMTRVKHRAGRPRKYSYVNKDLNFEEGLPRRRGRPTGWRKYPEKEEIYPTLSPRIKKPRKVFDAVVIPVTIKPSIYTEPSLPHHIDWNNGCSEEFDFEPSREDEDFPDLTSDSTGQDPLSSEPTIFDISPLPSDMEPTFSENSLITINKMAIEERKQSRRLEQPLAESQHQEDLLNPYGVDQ
Briefly: EMSA; 20 mM Tris-HCl pH 7.5, 100 mM NaCl, 5% glycerol, 1 mM DTT, room temperature 10 min; 1% agarose in TAE. The conditions noted are these: protein: recombinant; tags: His-SUMO removed by Ulp1; label: 5' FAM; single strand. A general note: In EMSA bound probe runs differently from free probe, usually more slowly.

B1: FAM-H1 (59 nt) (ssDNA)
DNA: CATGGAAACGAACGAGAGAAAACAAAGGAGAAAGACTATACATTTATATTACAAAAAAA
Regarding B1, the binding result is given as “no binding”.
